# Experimental data: patent US9175090B2, “Methods of using an antibody to inhibit WNT-mediated signaling in cancer” (Vanderbilt University, priority 2011, dated 2015)
# B1: mabLRP5/6: stable hybridoma line monoclonal antibody against LRP5/6 raised in BALB/c mice with human LRP6 fragments; inhibits Wnt signaling (antibody, V domains shown)
# VH: QVQLKESGPGLVASSQSLSITCTVSGFSLSRYSVHWVRQPPGKGLEWLGMIWGGGSTDYNSALKSRLGISKDNSKSQVFLKMNSLQTDDTAMYYCAGTGSWFAYWGQGTLVTVSA
# VL: DIQMTQSPASLSASVGETVTITCRASGNIHNYLAWYQQKQGKSPQLLVYNAKTLADGVPSRFSGSGSGTQYSLKINSLQPEDFGSYYCQHFWSTPWTFGGGTKLEIK
# How the values were obtained:
# [1] = system: AXIN2 and c-MYC; test: Real-time RT-PCR of endogenous Wnt target genes; assay type: cell-based; conditions: normalized to β-actin mRNA
# [2] = target: CK1α (Homo sapiens, UniProt P48729); test: Binding and activation of purified recombinant kinases; assay type: biochemical
# [3] = system: Wnt signaling (TOPflash, TCF/Lef1 promoter luciferase); test: TOPflash reporter assay in HEK 293 STF cells treated with Wnt3a-conditioned media; assay type: cell-based; conditions: 24 hours, read-out: IC50, inhibition of TOPflash activation (Wnt signaling)
# Excerpt: Graph represents mean±s.e.m of TOPflash signal normalized to cell number (performed in quadruplicate). […] Data shown represent mean of four independent amplification reactions, graphed as relative expression to unstimulated cells. Expression levels were normalized to β-actin mRNA. Error bars, RQ values with 95% confidence.
# [4] = system: male C57Bl/6 mice with myocardial infarct; assay type: in vivo
# Excerpt: FIGS. 5A-D. Mouse MI model. Representative mouse EKG tracings pre (FIG. 5A) and post (FIG. 5B) coronary artery ligation. […] Arrows mark lateral and posterior left ventricle (LV). LVIDD, LVIDS=LV internal diameter at systole and […], respectively. RV=right ventricle. […] Cardiac dimensions were obtained from 2-D guided M-mode images (100 frames/sec) and were read blinded using short axis and a parasternal long-axis views with the leading edge method. All echo measurements were averaged over 3 consecutive beats on unsedated mice at 7 and 30 days after infarction. Statistical significance assessed by the Wilcoxon rank sum test.
# Myocardial infarcts were induced in male C57Bl/6 mice by coronary ligation (FIG. 5) as previously described (Alfaro et al., 2008).
# Ventricular remodeling and cardiac functional parameters will be assessed by echo.
# Mammalian cardiomyocytes irreversibly withdraw from the cell cycle soon after birth and undergo terminal differentiation. […] Therefore, cardiac injury causes permanent myocardial loss and cardiac dysfunction. […] Proliferation was assessed by immunostaining for Ki-67. […] Phosphorylation of histone 3 (pH3) on Ser 10 is an established cellular marker for chromosome condensation during mitotic prophase (van Amerongen and Engel, 2008).
# [5] = target: β-catenin degradation complex (Homo sapiens, UniProt P48729); test: In vitro kinase reaction with purified GSK3, CK1α, Axin and β-catenin; assay type: biochemical; conditions: pyrvinium 10 nM, proteins 100 nM each
# Procedure: (§1) FIGS. 3A-C. […] Phosphorylation of β-catenin on GSK3 sites (p33,37,41) and the priming CK1α site (p45) was detected by immunoblotting. […] Cells were treated with Wnt3a-conditioned media and lysates were assayed for TOPflash to assess Wnt signaling.
# (§2) The inventors used a cell line with reduced CK1α levels due to inducible expression of shRNA against CK1α.
# [6] = system: Wnt signaling (TOPflash) in shRNA-CK1α cells; test: TOPflash in Jurkat cell line with inducible shRNA for CK1α; assay type: cell-based; conditions: pyrvinium 30 nM, Wnt3a-conditioned media
# Procedure: as §1, §2
# [7] = target: GSK3 (Homo sapiens, UniProt P49841); test: GSK3 kinase activity; assay type: biochemical; conditions: data not shown
# Excerpt: as §2
# [8] = system: β-catenin nuclear accumulation, RKO cells; test: Wnt3a-induced nuclear accumulation of β-catenin in RKO cells; conditions: 300 pg/ml, 24 hours
# Procedure: RKO cells were treated with Wnt3a in the presence or absence of 300 pg/ml mabLRP6 for 24 hours. Cells were fixed and immunostained for β-catenin (green). DAPI (blue) stains DNA.
# [9] = system: Axin 2 and Cyclin D transcripts; test: Real time RT-PCR of Wnt target genes in heart homogenates of treated mice; assay type: in vivo
# Procedure: (§3) The canonical Wnt signaling pathway was assessed using luciferase activity in HEK cells stably transfected with TOPflash reporter. Cells were treated with recombinant Wnt 3a to activate Wnt signaling. […] Cycle thresholds for 18S mRNA transcripts were used to normalize between samples. n=4 mice analyzed at each time point for each cohort. Ki-67-positive cells in the heart (FIG. 8C) and pH3-positive mononucleated, differentiated cardiomyocytes in mabLRP5/6-treated remote myocardium (FIG. 8D).
# (§4) To evaluate whether mabLRP5/6 inhibits Wnt-mediated transcription in vivo, the inventors injected 3 groups of mice IV with increasing amounts of mabLRP5/6 (2.3 μg, 4.7 μg or 9.4 μg, n=3 in each group) or control IgM. Mice were sacrificed after 48 hours and serum and tissue samples were obtained. […] Heart tissues from treated animals were homogenized and total RNA isolated for real time RT-PCR analysis (Young et al., 2005). […] The effect on Axin 2 transcript persisted at 72 hours after a single administration. To obtain evidence that mabLRP5/6 has cellular effects on post-MI myocardium, the inventors analyzed by immuno-histology paraffin-embedded sections from male mice treated with either IgM or mabLRP5/6 12 hours prior to induction of acute MI and then sacrificed 14 days later (n=1 for each condition). They identified >3-fold higher Ki-67^+ and pH3^+ cells in the remote LV from the mabLRP5/6-treated mouse compared to the control IgM-treated mouse (FIGS. 8C-D).
# [10] = system: Wnt3a-mediated luciferase activity; test: Plasma of IV-treated mice tested on TOPflash reporter HEK cells; assay type: in vivo; conditions: for Greater inhibition of Wnt3a-mediated luciferase activity by plasma compared to IgM controls: 9.4 μg, 100 μl plasma
# Procedure: as §3, §4
# [11] = system: male C57Bl/6 mice with myocardial infarct; test: Acute myocardial infarct model, IV antibody, echocardiography; assay type: in vivo
# Procedure: FIG. 9. Effect of low and high dose of mabLRP5/6 adminstered post infarct as compared to […] control. LVIDD and LVIDS to represent cardiac remodeling, and EF, ejection fraction, as a measurement of cardiac function, were determined by echocardiography and are plotted as percentage difference values (mean±SD) between 7 and 30 days after infarct.
# The inventors initiated studies to determine the effectiveness of mMABLRP5/6 on repair and regeneration of injured myocardium using an mouse acute myocardial infarct model. Myocardial infarcts were induced in 8-week old male C57Bl/6 mice ([…]) by coronary ligation (FIG. 9) as previously described (Alfaro et al., 2008). At the time of infarction, the inventors administered 10 μg or 20 μg of mabLRP5/6 in 100 μl PBS or the same amount of IgM as control, intravenously by tail vein injection. The mice received a second dose of mabLRP5/6 or control antibody 72 hours after infarct to maintain at least 50% Wnt inhibition activity in the plasma through 7 days post infarct (data not shown). Ventricular remodeling and cardiac function were analyzed by echocardiography pre-infarct and at 7 and 30 days post MI. Ventricular function was reflected by ejection fraction (EF). LV internal dimension diastolic (LVIDD) and LV internal dimension systolic (LVIDS) reflected remodeling of the infarcted ventricle (FIG. 1). […] Additional numbers of animals as well as histologic myocardial analysis and high-resolution visual sonics studies are pending to determine infarct size and elucidate effects of mabLRP5/6 on endogenous cellular myocardial repair.
# [12] = system: Wnt3a-mediated Wnt signaling (LRP5/6); test: Wnt3a-mediated activation of the Wnt pathway, TOPflash reporter cell line (antibody); assay type: cell-based
# Procedure: FIGS. 11A-B. Wnt activated signaling. (FIG. 11A) Wnt3a activated signaling in 293 HEK cells. (FIG. 11B) Wnt signaling in SW480 colorectal cancer cell line with mutant APC.
# The inventors examined effects of antibodies on Wnt signaling activated by recombinant Wnt3a, which was added to the media, and effects of antibodies on Wnt signaling in a colorectal cancer line (SW480) that has constitutively active Wnt signaling due to a mutation in the tumor suppressor, APC. […] This was unexpected because the APC mutation is downstream of the LRP6 receptor, to which the antibody is directed.
# [13] = system: mice; test: In vivo toxicity of mabLRP5/6; conditions: mouse
# [14] = system: Ki-67+ and pH3+ cells in remote LV; test: Immunohistology of post-MI myocardium after antibody pretreatment; assay type: in vivo, mice; conditions: treated 12 hours prior to MI, 14 days, n=1
# Procedure: as §3
# as §4, with “They identified >3-fold higher Ki-67^+ and pH3^+ cells in the remote LV from the mabLRP5/6-treated mouse compared to the control IgM-treated mouse (FIGS. 8C-D).” left out
# CK1α, sequence (P48729 whole entry): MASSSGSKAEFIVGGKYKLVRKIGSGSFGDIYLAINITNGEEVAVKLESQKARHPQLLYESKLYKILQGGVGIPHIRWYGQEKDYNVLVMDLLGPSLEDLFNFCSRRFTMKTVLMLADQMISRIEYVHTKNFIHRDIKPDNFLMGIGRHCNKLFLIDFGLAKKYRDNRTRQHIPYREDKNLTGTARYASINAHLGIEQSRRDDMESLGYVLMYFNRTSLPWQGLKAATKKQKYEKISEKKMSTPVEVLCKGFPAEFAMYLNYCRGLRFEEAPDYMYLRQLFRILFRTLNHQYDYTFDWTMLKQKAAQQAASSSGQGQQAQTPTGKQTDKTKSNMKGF
# GSK3, sequence (P49841 whole entry): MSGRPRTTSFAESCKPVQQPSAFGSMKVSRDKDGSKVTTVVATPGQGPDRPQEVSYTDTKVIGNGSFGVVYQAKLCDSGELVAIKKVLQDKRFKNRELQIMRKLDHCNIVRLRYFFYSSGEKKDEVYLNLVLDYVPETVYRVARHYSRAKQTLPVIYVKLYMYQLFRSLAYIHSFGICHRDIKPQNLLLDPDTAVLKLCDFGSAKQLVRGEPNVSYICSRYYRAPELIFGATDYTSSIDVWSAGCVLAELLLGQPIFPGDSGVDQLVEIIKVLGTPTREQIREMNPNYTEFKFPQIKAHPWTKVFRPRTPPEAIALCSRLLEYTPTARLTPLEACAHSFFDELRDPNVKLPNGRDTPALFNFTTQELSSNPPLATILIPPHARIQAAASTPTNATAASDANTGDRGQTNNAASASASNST
# β-catenin degradation complex, sequence (P48729 whole entry, one chain of several): as the sequence (P48729 whole entry) above
molecule,measurement,setting,value
Cc1cc(/C=C/c2ccc3cc(N(C)C)ccc3[n+]2C)c(C)n1-c1ccccc1 [pyrvinium],Levels of endogenous Wnt target genes AXIN2 and c-MYC,[1],decreases
same,Phosphorylation of Tau by CK1α,[2]; data not shown,enhanced
same,Binding and activation of representative kinases,[2]; pyrvinium 10 nM,binding and activation of CK1α alone
same,IC50,[3],~10 nM
same,"Infarct size, comparison between the two cohorts",[4]; data not shown,did not reflect any statistically significant differences
same,"Numbers of Ki-67-positive cells in peri-infarct and remote myocardium, versus Cmpd 211","[4]; mouse, in vivo",significantly higher
same,"Numbers of Ki-67-positive cells in the scar, versus Cmpd 211","[4]; mouse, in vivo",similar
same,Average difference in fractional shortening between days 7 and 30,"[4]; single 200 nM injection, p<0.05",22.3+5.2
same,Myocyte proliferation in sham-operated animals,"[4]; single intramyocardial injection into LV apex, data not shown",did not induce myocyte proliferation
same,β-catenin phosphorylation (GSK3 and CK1α sites),[5],dramatic increase
same,Inhibition of TOPflash activity in shRNA-CK1α cells,[6],failed to inhibit
same,GSK3 activity,[7],no observable effect
B1,Wnt3a-induced nuclear accumulation of β-catenin,[8],blocked
same,Wnt3a-induced nuclear accumulation of β-catenin,[8]; listed as mabLRP6,inhibits
same,Reduction in Axin 2 transcripts in heart compared to controls,[9]; 48 h,~2 fold
same,Reduction in Cyclin D transcripts in heart compared to controls,[9]; 48 h,~2 fold
same,Effect on Axin 2 transcript in heart,[9]; 72 hours after a single administration,persisted
same,Greater inhibition of Wnt3a-mediated luciferase activity by plasma compared to IgM controls,[10]; 48 hours after administration,~5 fold
same,Greater inhibition of Wnt3a-mediated luciferase activity by plasma compared to IgM controls,[10]; 72 hours after administration,~2 fold
same,Wnt signaling in TOPflash reporter cell line treated with plasma,"[10]; IV 4.7 and 9.4 μg, 50 μl plasma, 48 and 72 hours",inhibited Wnt signaling
same,Percentage difference in LVIDS between day 7 and day 30,[11]; 20 μg compared with 10 μg dose or control IgM,reduced in a dose-dependent manner
same,Decrease in ejection fraction (EF) between day 7 and day 30,[11]; high dose,decreased less
same,Percentage difference in LVIDD between day 7 and day 30,[11]; high dose (20 μg IV at infarction and 72 hours),5.36±0.83 percentage
same,Decrease in ejection fraction (EF) between day 7 and day 30,[11]; low dose,~6%
same,Percentage difference in LVIDD between day 7 and day 30,[11]; low dose (10 μg IV at infarction and 72 hours),6.23 ± 2.3 percentage
same,Wnt inhibition activity in the plasma,"[11]; second dose at 72 hours, through 7 days post infarct, data not shown",at least 50%
same,"IC50, inhibition of Wnt signaling",[12],~0.2 ng/mL
same,In vivo toxicity,[13],minimal toxicity
same,"Ki-67+ cells in remote LV, higher than control IgM",[14],> 3 fold
same,"pH3+ cells in remote LV, higher than control IgM",[14],> 3 fold
